Reference: US20060026702A1, “Phosphoinositide 3-kinase mediated inhibition of GPCRs” (DUKE UNIVERSITY, priority 2002, published 2006)

Columns and labels:
βARK1/PI3K interaction = molecular target: T1, βARK1/PI3K interaction (Bos taurus, UniProt P21146); experiment: βARK1 associated PI3K activity in HEK 293 cells co-transfected with HEAT or PI3KΔHEAT; format: cell-based
T1 construct: recognizes both full length βARK1 and the βARKct; expressed in transfected cells; host or cells: HEK 293
T1 sequence (P21146 1-689): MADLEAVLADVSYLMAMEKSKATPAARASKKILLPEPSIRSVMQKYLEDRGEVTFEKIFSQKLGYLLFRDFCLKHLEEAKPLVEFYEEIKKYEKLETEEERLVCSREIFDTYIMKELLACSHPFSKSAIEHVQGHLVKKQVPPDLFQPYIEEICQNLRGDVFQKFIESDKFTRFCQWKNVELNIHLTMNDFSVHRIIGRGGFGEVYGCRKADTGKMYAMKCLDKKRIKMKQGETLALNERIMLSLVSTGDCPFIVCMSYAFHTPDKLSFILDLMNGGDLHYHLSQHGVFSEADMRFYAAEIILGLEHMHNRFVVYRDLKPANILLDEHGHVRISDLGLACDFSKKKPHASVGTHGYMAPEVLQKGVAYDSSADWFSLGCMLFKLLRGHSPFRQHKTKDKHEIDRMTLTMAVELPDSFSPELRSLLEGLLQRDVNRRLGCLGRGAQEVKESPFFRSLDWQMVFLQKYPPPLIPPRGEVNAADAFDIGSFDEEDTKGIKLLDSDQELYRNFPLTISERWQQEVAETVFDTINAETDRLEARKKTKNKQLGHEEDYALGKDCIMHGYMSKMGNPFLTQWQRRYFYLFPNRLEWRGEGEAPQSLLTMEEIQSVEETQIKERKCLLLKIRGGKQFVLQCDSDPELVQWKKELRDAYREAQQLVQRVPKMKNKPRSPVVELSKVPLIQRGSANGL
Method: The present inventors determined that overexpression of the 197 amino acid HEAT domain of PI3K competed for endogenous PI3K binding to βARK1 in living cells. HEK 293 cells were co-transfected with plasmids containing the βARK1 cDNA (2 μg) and increasing concentrations of the HEAT domain cDNA (ranging from 0 to 6 μg). […] The maximal reduction of βARK1 associated PI3K activity occurred when cells were co-transfected with 4 μg of HEAT cDNA (FIG. 9B). Summary results of n=5 experiments. *, p<0.0005. The data was normalized to βARK1 associated PI3K activity in cells transfected with βARK1 only. Furthermore, FLAG tagged HEAT protein co-immunoprecipitated with βARK1 monoclonal antibodies in the co-transfected HEK 293 cells.
The absence of the HEAT domain in an otherwise intact PI3K molecule affected the association of βARK1 with endogenous PI3K in cells. HEK 293 cells were co-transfected with plasmids containing cDNAs for βARK1 (2 μg), βARK1 plus HEAT (4 μg), and βARK1 plus PI3KΔHEAT (4 μg). Cell lysates were immunoprecipitated with a βARK1 monoclonal antibody and assayed for the associated PI3K activity. Expression of PI3KΔHEAT had no effect on the endogenous βARK1/PI3K interaction, whereas overexpression of HEAT abolished this interaction (FIGS. 9C and 9D). […] The data was normalized to βARK1 associated PI3K activity in cells transfected with βARK1 only.
Cytosolic and membrane fractions were prepared and analyzed for βARK1 associated PI3K activity. […] Membrane fractions were prepared from the HEK293 cells co-transfected with the βARK1 (2 μg), βARK1 and HEAT domain (4 μg) containing plasmids.

V2R-GFP = molecular target: T2, V2R-GFP (Homo sapiens, UniProt P30518); experiment: Endocytosis of V2R-GFP in live cells by confocal microscopy; format: cell-based; settings: AVP 10 μM; HEAT co-expressed
T2 construct: expressed in transfected cells; host or cells: HEK 293
Method: Disruption of the endogenous βARK1/PI3K interaction by the HEAT protein attenuated V2R endocytosis. Endocytosis of V2R-GFP in live cells was monitored for 20 min following AVP (10 μM) stimulation in the absence or presence of HEAT protein co-expression using confocal microscopy. HEK 293 cells were transfected with either GFP-V2R (2 μg)/pRK5 (2 μg) or GFP-V2R (2 μg)/HEAT (2 μg). V2R internalization was followed in the same cell after agonist stimulation. Prior to agonist, the distribution of V2R-GFP was found distinctly at the plasma membrane (FIG. 14, 0 min). Following agonist treatment, there was redistribution of the V2R-GFP into membrane puncta consistent with entry into clathrin coated pits. With time, this was followed by the formation of cytoplasmic aggregates, and then with the complete loss of membrane fluorescence (FIG. 14, 6-24 min). […] In FIG. 14, panels on the left represent cells transfected with the V2R-GFP alone (panels show the same cell monitored at 0, 6, 12, 18, and 24 min following stimulation). Panels on the right represent cell transfected with V2R-GFP and HEAT (panels show the same cell monitored as above). In the absence of HEAT, agonist caused the internalization V2R5 as shown by the formation of distinct cytoplasmic aggregates and complete loss of membrane fluorescence.

B1: HEAT: 197 amino acid HEAT domain of PI3Kγ, FLAG epitope-tagged (SEQ ID NO: 2), overexpressed in cells (protein, listed as Homo sapiens)
chain: MDYKDDDDKHPIALPKHQPTPDDRVRAEMPNQLRKQLEAIIATDTAEDKELLWHFRYESLKHPKAYPKLFSSVKWGQQEIVAKTYQLLARREVWDQSALDVGLTMQLLDCNFSDENVRAIAVQKLESLEDDDVLHYLLQLVQAVKFEPYHDSALARFLLKRGLRNKRIGHFLFWFLRSEIAQSRHYQQRFAVILEAYLRGCGTA
modifications: FLAG tag
- endogenous βARK1/PI3K interaction (βARK1/PI3K interaction; 4 μg cDNA co-transfected with βARK1): abolished
- agonist-induced translocation of PI3K to the membrane (βARK1/PI3K interaction; 10 μM isoproterenol 2 min, HEAT 4 μg): effectively abolished
- βARK1 associated PI3K activity with increasing HEAT cDNA (βARK1/PI3K interaction; HEAT cDNA 0 to 6 μg): effectively competed away
- receptor endocytosis (redistribution of V2R-GFP) (V2R-GFP): completely inhibited
